This note sets out measurements from US20160355583A1 (Novartis, published 2016).

Residue numbers refer to the chain shown, from its start. Where two headings read alike, the source gives them in different places. Bounds are passed on as bounds.

In one test the target is T1, cyno BMP9 (cyno, UniProt G7PEU8 320-429).
T1 sequence: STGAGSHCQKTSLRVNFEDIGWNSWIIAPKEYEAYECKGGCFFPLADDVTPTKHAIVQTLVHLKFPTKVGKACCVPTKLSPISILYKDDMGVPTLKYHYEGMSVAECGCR
The test is described as follows: MSD-SET solution equilibrium titration. The method, then:
(§1) The amount of free Fab binding sites was determined by transferring the mixtures on antigen-coated plates and a brief incubation. The free Fab was consequently bound to the plate and detected with a detection antibody after a washing step for removing Fab-antigen complexes. The resulting signal was plotted versus the antigen concentration; and the KD was accurately determined by non-linear curve fitting.
(§2) A 22 serial 2ⁿ dilution of the antigens (human BMP9 (GD-43-KS00); cyno BMP9, rat BMP9 (R&D Systems 5566-BP) or mouse BMP9 (iPROT101715)) was prepared in incubation buffer (PBS (Teknova Cat#P0195) containing 0.5% BSA (Sigma Cat#A7906-500G) and 0.02% Tween-20 (VWR Cat#437082Q)). A constant concentration of the Fab was added. A volume of 60 ul of each antigen:Fab mix was distributed in duplicates to a 384-well polypropylene microtiter plate (PP MTP, Greiner Cat#781280). Incubation buffer served as negative control and a sample containing no antigen served as positive control (Bₘₐₓ). The plate was sealed and incubated overnight (O/N) at room temperature (RT).
(§3) A 384-well standard MSD array plate (Meso Scale Discovery Cat#L21XA) was coated with 30 ul/well human BMP9 diluted in PBS as capture agent and incubated O/N at 4° C. After washing for 3 times with 70 ul/well washing buffer (TBS (Teknova Cat#T1680) with 0.05% Tween-20), the plate was blocked with 50 ul/well blocking buffer (PBS with 5% BSA) for 1 hour at RT. After washing, a volume of 30 ul/well of the antigen:Fab mix was transferred from the PP MTP to the coated MSD plate and incubated for 20 min at RT. After an additional wash step, 30 ul of detection antibody (Goat anti-human Fab specific (Jackson Immuno Research Cat#109-005-097) conjugated with MSD SULFO-TAG NHS Ester (Meso Scale Discovery Cat#R91AN-1)) diluted 1:1000 in incubation buffer was added to each well and incubated for 30 min at RT. The MSD plate was washed and 35 ul/well of read buffer (MSD Read Buffer T 4×, Meso Scale Discovery Cat#R92TC-1) was added and then incubated for 5 min at RT. ECL signals were measured with the MSD SECTOR Imager 6000. The data was evaluated with XLfit (IDBS) software following a 1:1 fit model for Fab (according to Piehler et al., 1997).

Another test concerns the target T2, mouse BMP9 (mouse, UniProt Q9WV56 319-428, limits assumed).
T2 construct: also called murine BMP9; mouse BMP9 (iPROT101715)
T2 sequence (looked up): T1 sequence with G5S, N23D, E33D
The test is described as follows: MSD-SET solution equilibrium titration. The method, then: as §1, §2, §3

Test [1] has as its target T3, human BMP9 (BMP9/Growth Differentiation Factor 2 [Homo sapiens], NP_057288) (human, UniProt Q9UK05 320-429, limits assumed).
T3 construct: cell assays use 'recombinant human BMP9 complex'; also called huBMP9; hBMP9
T3 sequence: T1 sequence with T2A, N23D, I84V
The test is described as follows: MSD-SET solution equilibrium titration. The method, then: as §1, §2, §3

Test [2] addresses T3, human BMP9 (BMP9/Growth Differentiation …). The test is described as follows: cell-based or functional assay.
For test [3] the target is unchanged. The test is described as follows: blocking ELISA; competitor Type II BMP receptor (ActRIIB, BMPRII). The method, then:
(§4) Blocking ELISA was used to identify positive clones that can inhibit the interactions between BMP9 and its receptors. Four different recombinant BMP9 receptors can be used: human Alk1-Fc (R&D system, 370-AL-100); human BMPRII-Fc (R&D system, 811-BR-100); human ActRIIA-Fc (R&D system, 340-R2-100); human ActRIIB-Fc (R&D system).
(§5) The blocking activity of antibody sample to specific ligand/receptor combination was measured by ELISA. In brief, 50 ul of receptor at a concentration of 1 ug/ml in coating buffer (PBS) was added into 96 well ELISA plates at 4° C. overnight, followed by washing with PBST one time. ELISA plates were blocked with 200 ul blocking buffer (PBST containing 1% BSA) in each well and then incubated at room temperature (RT) for 1 hour, followed by washing with PBST for 3 times. Diluted antibody sample was mixed with biotinylated human BMP9 (bio-hBMP9 of 1 ug/ml) and incubated at RT for 45 minutes. The mixture of antibody and bio-hBMP9 was added to the plates of 50 ul/well and then incubated at RT for 30 minutes, followed by washing with PBST for 3 times. 50 ul Poly-HRP Streptavidin (Thermofisher, 21140) was added to each well of the plates and incubated at RT for 30 minutes, followed by washing with PBST for 5 times. Finally, 50 ul of TMB reagent (Invitrogen 002023) and 50 ul of 1N HCl (Invitrogen SS01100) were added to each well to stop the reaction. Absorbance of each well was read at 450 nm to get readout OD₄₅₀.

In test [4] the target is T4, human BMP10 (Bone Morphogenetic Protein 10 Preproprotein [Homo sapiens], NP_055297) (human, UniProt O95393 317-424).
T4 construct: Bought recombinant protein; also called huBMP10; rhBMP10 (R&D Cat#2926-BP-025)
T4 sequence: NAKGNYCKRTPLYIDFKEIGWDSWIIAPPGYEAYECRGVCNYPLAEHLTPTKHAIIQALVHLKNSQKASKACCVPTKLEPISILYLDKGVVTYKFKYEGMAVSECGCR
The test is described as follows: Table 7 (caption: MSD-SET; Example 6 describes Biacore SPR on immobilised rhBMP10, Fab 31.25-1000 nM).

Test [5] concerns the target T3, human BMP9 (BMP9/Growth Differentiation …). The test is described as follows: blocking ELISA; competitor Type I BMP receptor (AlkI). The method, then:
as §4, §5
For orientation: In an ELISA, binding on a coated surface is turned into a signal by an enzyme label.

In another test the target is T5, rat BMP9 (rat, UniProt M0RB87 320-430, The mature growth factor is a disulfide-linked homodimer. One copy of the polypeptide is given.).
T5 construct: also called rat BMP9 (R&D Systems 5566-BP); rat BMP9 condition medium
T5 sequence: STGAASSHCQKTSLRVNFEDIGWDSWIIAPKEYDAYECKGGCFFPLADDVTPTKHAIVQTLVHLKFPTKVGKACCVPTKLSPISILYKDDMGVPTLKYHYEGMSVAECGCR
The test is described as follows: MSD-SET solution equilibrium titration. The method, then:
as §1, §2, §3

The target of test [6] is T4, human BMP10 (Bone Morphogenetic Protein …). The test is described as follows: Table 5 (caption: MSD-SET; Example 6 describes Biacore SPR on immobilised rhBMP10, Fab 31.25-1000 nM). A general note: In SPR one partner is held on a chip, and binding of the other changes the refractive index at the surface.
The target of test [7] is T3, human BMP9 (BMP9/Growth Differentiation …). The test is described as follows: cell-based or functional assay. This is another data set of the same source.
The target of a further test is T6, human BMP7 (human, UniProt P18075 293-431).
T6 construct: Bought recombinant protein; also called huBMP7; rhBMP7 (R&D Cat#354-BP-010)
T6 sequence (looked up): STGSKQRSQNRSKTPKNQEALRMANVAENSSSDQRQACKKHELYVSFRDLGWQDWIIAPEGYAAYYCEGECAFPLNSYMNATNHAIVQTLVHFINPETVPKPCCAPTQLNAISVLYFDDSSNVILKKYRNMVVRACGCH
The test is described as follows: table caption: MSD-SET; Example 6 describes Biacore SPR for BMP2, BMP7, BMP10.

In the next test the target is T7, human BMP2 (human, UniProt P12643 283-396).
T7 construct: Bought recombinant protein; also called huBMP2; rhBMP2 (R&D Cat#355-BM-010)
T7 sequence (P12643 283-396 limits assumed): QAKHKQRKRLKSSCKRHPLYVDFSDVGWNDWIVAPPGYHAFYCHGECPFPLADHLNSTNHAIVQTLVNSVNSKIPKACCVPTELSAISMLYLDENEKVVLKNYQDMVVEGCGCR
The description is as above.

B1: Antibody BMP9-8: MOR023793 (antibody, human IgG1, kappa, V domains shown)
VH: QVQLVQSGAEVKKPGASVKVSCKASGYTFTSYYMNWVRQAPGQGLEWMGWINPVQGNTNYAQKFQGRVTMTRDTSISTAYMELSRLRSEDTAVYYCARNYFDVWGQGTLVTVSS
VL: DIQMTQSPSSLSASVGDRVTITCRASQTISNFLAWYQQKPGKAPKLLIYAASNLQSGVPSRFSGSGSGTDFTLTISSLQPEDFAVYYCQQLYAESITFGQGTKVEIKR
notes: Fully human, phage display
Usually Kd stands for the constant that tells how readily two partners part at equilibrium. Read a low Kd as tighter binding. By IC50 is commonly meant the concentration that gives 50% inhibition. On to B1, for which the Kd was determined as 240 pM with cyno BMP9, 440 pM with mouse BMP9 and 120 pM in test [1]. For the same molecule, the “RGA IC50 [pM] (HEK293T BRE-Luc reporter gene assay)” value (“RGA IC50 [pM]” below) in [2] worked out at 113 pM. In addition, in [3], the IC50 is at most 1000 pM. Besides, the binding result in [4] was “no binding”.

B2: Antibody BMP9-7: MOR023787 (antibody, human IgG1, lambda, V domains shown)
VH: QVQLVESGGGLVKPGGSLRLSCAASGFTFSSAWMSWVRQAPGKGLEWVGHIKSKTYGGTIDYAAPVKGRFTISRDDSKNTLYLQMNSLKTEDTAVYYCARVGGYYGYGYAFAYWGQGTLVTVSS
VL: SYELTQPLSVSVALGQTARITCSGDNIGDKYVSWYQQKPGQAPVLVIYDDNKRPSGIPERFSGSNSGNTATLTISRAQAGDEADYYCSSTASKSFNVFGGGTKLTVLG
notes: Fully human, phage display
Turning to B2, the Kd in the test with cyno BMP9 was 350 pM; with mouse BMP9 it was 740 pM; in [1], 200 pM. The “RGA IC50 [pM]” value in [2] is 118 pM. The binding result in [4] is recorded as “no binding”. In addition, the IC50 in test [5] was at most 1000 pM.

B3: Antibody BMP9-5: AM1900 (antibody, human IgG1, kappa, V domains shown)
VH: QVQLVQSGAEVKKPGASVKVSCKASGYTFTRYWMHWVRQAPGQGLEWMGEINPSQGGTNYNEKFKSRVTMTVDKSISTAYMELSRLRSDDTAVYYCAIGANYGGLVYWGQGTLVTVSS
VL: EIVLTQSPATLSLSPGERATLSCRASESLDNYGISFMNWFQQKPGQAPRFLIYAASNQGSGIPARFSGSGSGTDFTLTISSLQPEDTAVYFCQQSKEVPRTFGGGTKVEIKR
As to B3, the Kd with rat BMP9 stood at 46 pM; in test [1] it was 54 pM; with human BMP7, 108000 pM; with human BMP2 it was 999000 pM. Further, the binding result in test [6] is given as “no binding”. Also, the IC50 in test [3] is at most 1000 pM. In addition, the “RGA IC50 [pM]” value in test [7] stood at 100 pM.

B4: Antibody BMP9-9: MOR023796 (antibody, human IgG1, lambda, V domains shown)
VH: QVQLVQSGAEVKKPGSSVKVSCKASGGTFSDYAIHWVRQAPGQGLEWMGGIIPFFGTAYYAQKFQGRVTITADESTSTAYMELSSLRSEDTAVYYCARRIVSDSVAVQYRHAFDPWGQGTLVTVSS
VL: QSVLTQPPSVSGAPGQRVTISCSGSSSNIGSNYVYWYQQLPGTAPKLLIYGNNNRPSGVPDRFSGSKSGTSASLAITGLQAEDEADYYCNAWDTKAYVWVFGGGTKLTVLG
notes: Fully human, phage display
In the case of B4, the Kd with cyno BMP9 worked out at 130 pM; with mouse BMP9, 420 pM; in test [1], 440 pM. Besides, in test [2], the “RGA IC50 [pM]” value came to 130 pM. Also, in test [3], the IC50 was at most 1000 pM. For the same molecule, the binding result in [4] is “no binding”.

B5: Antibody BMP9-2: MOR022962 (antibody, human IgG1, kappa, V domains shown)
VH: QVQLLESGGGLVQPGGSLRLSCAASGFTFSSYAMSWVRQAPGKGLEWVSITLGTGHTHYADSVKGRFTISRDNSKNTLYLQMNSLRAEDTAVYYCARGSYIIWSALDYWGQGTLVTVSS
VL: DIQMTQSPSSLSASVGDRVTITCRASQDIRSYLNWYQQKPGKAPKLLIYDASNLQSGVPSRFSGSGSGTDFTLTISSLQPEDFATYYCQQSDTSPLTFGQGTKVEIKR
In the case of B5, the Kd in the test with cyno BMP9 amounted to 18 pM; with mouse BMP9 it was 5 pM; in the test with rat BMP9, 6 pM; in [1] it was 12 pM. The “RGA IC50 [pM]” value in [2] came out at 138 pM. Moreover, in test [4], the binding result is listed as “no binding”. The IC50 in [5] was at most 1000 pM.

B6: Antibody BMP9-3: MOR023795 (antibody, human IgG1, lambda, V domains shown)
VH: EVQLVQSGAEVKKPGESLKISCKGSGYSFTTYWIGWVRQMPGKGLEWMGIIYPEGSYTTYSPSFQGQVTISADKSISTAYLQWSSLKASDTAMYYCARGKRVDASSFDYWGQGTLVTVSS
VL: QSVLTQPPSVSGAPGQRVTISCSGSSSNIGDNYVSWYQQLPGTAPKLLIYRNNKRPSGVPDRFSGSKSGTSASLAITGLQAEDEADYYCSSTDKEHLVFGGGTKLTVLG
notes: Fully human, phage display
Take B6: the Kd worked out at 262 pM with cyno BMP9, 59 pM with mouse BMP9, 69 pM with rat BMP9 and 288 pM in test [1]. In addition, in test [2], the “RGA IC50 [pM]” value amounted to 167 pM. Besides, the IC50 in [3] is at most 1000 pM. Also, the binding result in test [4] was “no binding”.
